Measurements as given in US20140037642A1, “METHODS AND COMPOSITIONS RELATING TO INHIBITION OF IGF-1R” (AMGEN INC., priority 2011, published 2014).

Columns and labels:
[1] = target: hu IGF-1R(ECD)-C3-muIgG1Fc (human; mouse); assay: ORIGEN competition with 1 nM Ru-IGF-1 for IGF-1R(ECD)-C3-muFc on beads
[2] = target: hu IGF-1R(ECD)-C3-muIgG1Fc (human; mouse); assay: ORIGEN competition with 2 nM Ru-IGF-2 for IGF-1R(ECD)-C3-muFc on beads

Ki [1] [nM]	Max (%), maximum level of inhibition at 1 µM antibody [1] [%]	Ki [2] [nM]	Max (%), maximum level of inhibition at 1 µM antibody [2] [%]	Substance
16	89	13.1	99	murine anti-IGF-1R antibody 1H7 (Santa Cruz Biotechnology)
5.3	91	–	–	murine anti-IGF-1R antibody αIR3 (Calbiochem)
